Assays:
Details in all cases: both partners purified
[1] = target: T1, GABARAP wild type (ITC sample) (human, UniProt O95166 1-117); test: ITC; PCM1 LIR peptide 0.4 mM titrated into 0.025 mM LC3 or GABARAP protein in 21 steps; 25 °C; 50 mM Tris-HCl pH 7.4, 100 mM NaCl; one-site binding model
T1 construct: GABARAP, human ATG8 protein; also called GABARAP-wt; GABARAP WT

[2] = target: T2, GABARAP Y25H mutant (ITC sample) (human, UniProt O95166 1-117, Y25H); test: as above
T2 construct: GABARAP, human ATG8 protein, with Y25H

[3] = target: T3, GABARAPL2 wild type (ITC sample) (human, UniProt P60520 1-117); test: as above
T3 construct: GABARAPL2, human ATG8 protein; also called GABARAPL2 WT

[4] = target: LC3B wild type (ITC sample) (human, UniProt Q9GZQ8 1-120); test: as above
[5] = target: LC3B H27Y mutant (ITC sample) (human, UniProt Q9GZQ8 1-120, H27Y); test: as above
GABARAP (ITC sample) = target: T4, GABARAP (ITC sample) (human, UniProt O95166 1-117); test: ITC; 0.4 mM PCM1 LIR peptide titrated into 0.025 mM LC3 and GABARAP proteins in 21 steps, 25 °C, 50 mM Tris-HCl pH 7.4, 100 mM NaCl, one-site binding model
T4 construct: GABARAP, human, purified protein for ITC

GABARAPL2 (ITC sample) = target: T5, GABARAPL2 (ITC sample) (human, UniProt P60520 1-117); test: as above
T5 construct: GABARAPL2, human, purified protein for ITC

LC3B (ITC sample) = LC3B (ITC sample) (human, UniProt Q9GZQ8 1-120); test: as above
[6] = target: T6, GABARAP Y25H (ITC sample) (human, UniProt O95166 1-117, Y25 in GABARAP to H); test: as above
T6 construct: GABARAP, human, with Y25H, purified protein for ITC; also called mutation of invariant Y25 in GABARAP to H

LC3B H27Y (ITC sample) = LC3B H27Y (ITC sample) (human, UniProt Q9GZQ8 1-120, H27 in LC3B to Y); test: as above

T2 sequence (O95166 whole entry Y25H): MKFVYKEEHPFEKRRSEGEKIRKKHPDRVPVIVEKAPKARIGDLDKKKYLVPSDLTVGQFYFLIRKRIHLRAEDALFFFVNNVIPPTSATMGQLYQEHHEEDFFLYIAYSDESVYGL
T1 sequence (O95166 whole entry): as the sequence (O95166 whole entry Y25H) above, with H25Y counted along it
T3 sequence (P60520 whole entry): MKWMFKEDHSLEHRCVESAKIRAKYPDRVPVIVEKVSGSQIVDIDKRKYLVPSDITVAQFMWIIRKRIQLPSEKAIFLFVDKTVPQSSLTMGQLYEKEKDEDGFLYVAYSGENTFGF
T4 sequence (O95166 whole entry): as the sequence (O95166 whole entry Y25H) above, with H25Y counted along it
T6 sequence (O95166 whole entry Y25H): as the sequence (O95166 whole entry Y25H) above
T5 sequence (P60520 whole entry): as the sequence (P60520 whole entry) above

Row | Binder | Ka [1] [M⁻¹] | stoichiometry N [1] | Ka [2] [M⁻¹] | Kd [2] [µM] | stoichiometry N [2] | Ka [3] [M⁻¹] | stoichiometry N [3] | Ka [4] [M⁻¹] | stoichiometry N [4] | Ka [5] [M⁻¹] | Kd [5] [µM] | stoichiometry N [5] | Kd (GABARAP (ITC sample)) [µM] | Kd (GABARAPL2 (ITC sample)) [µM] | Kd (LC3B (ITC sample)) [µM] | binding result [6] | binding result (LC3B H27Y (ITC sample))
1 | SDEEDFVKVEDLPLKLTIY (pericentriolar material 1 (PCM1), human, residues 1958-1976; core LIR FVKV; also called PCM1 LIR peptide; PCM LIR peptide; source: synthetic peptide, bought: GenScript Inc) [Human PCM1 LIR-contained peptide (residues 1958-1976)] | 157000 | 0.94 ± 0.04 | 17900 | 56 | 1 | 311000 | 0.98 ± 0.02 | 13200 | 1 | 40200 | 25 | 1 | – | – | – | – | –
2 | SDEEDFVKVEDLPLKLTIY (PCM1, human, residues 1958-1976 with the core LIR FVKV; also called PCM1 LIR peptide; PCM LIR peptide; source: synthetic peptide, bought: GenScript Inc) [Human PCM1 LIR-contained peptide] | – | – | – | – | – | – | – | – | – | – | – | – | 6.4 | 3.2 | 76 | binds | binds

— publication PMC6744468, “Selective autophagy maintains centrosome integrity and accurate mitosis by turnover of centriolar satellites” (Nature Communications, 2019)
